In patent publication US20210171640A1 (Janssen / Centocor, published 2021):
Substitutions are numbered along the chain they refer to. One block for each binder: values may come before it.

Assays:
[1] = target: T1, human VISTA extracellular domain (human, UniProt Q9H7M9 33-194); assay: ProteOn SPR
T1 construct: also called SB0361 (human); human VISTA ECD
T1 sequence: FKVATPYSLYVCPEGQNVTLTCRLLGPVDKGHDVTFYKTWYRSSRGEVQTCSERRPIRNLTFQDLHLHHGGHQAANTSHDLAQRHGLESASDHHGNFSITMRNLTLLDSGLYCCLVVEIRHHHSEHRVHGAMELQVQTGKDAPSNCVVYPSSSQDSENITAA
Protocol: (§1) Antibodies were captured on ProteOn chips using anti-IgG Fc coated surfaces. […] The antigens were allowed to bind/associate to the antibody-coated chips for 4 minutes after which time dissociation was monitored for 30 minutes. Chips were regenerated with two treatments of 100 mM phosphoric acid for 18 seconds. All experiments were run at 25° C. and data was fit to 1:1 Langmuir binding model.

[2] = target: T2, cynomolgus VISTA extracellular domain (cynomolgus, UniProt A0A7N9IB00 33-194); assay: ProteOn SPR
T2 construct: extracellular domain; also called SB0361 (cyno); cyno VISTA ECD
T2 sequence: T1 sequence with P6L, L24F, L25F, N145S, V148A, D155E
Protocol: as §1

[3] = target: T3, human VISTA expressed on cells (human, UniProt Q9H7M9 33-295); assay: cell-based or functional assay
T3 sequence: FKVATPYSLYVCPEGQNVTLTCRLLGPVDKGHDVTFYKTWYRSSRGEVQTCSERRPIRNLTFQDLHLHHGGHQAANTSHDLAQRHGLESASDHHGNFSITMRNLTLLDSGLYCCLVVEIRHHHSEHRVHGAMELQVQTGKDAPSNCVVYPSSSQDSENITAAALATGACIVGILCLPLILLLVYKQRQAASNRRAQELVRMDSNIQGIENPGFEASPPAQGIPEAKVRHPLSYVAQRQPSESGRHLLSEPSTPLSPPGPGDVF

[4] = target: T3, human VISTA expressed on cells; assay: cell-based or functional assay; remark: listed apart in the source
[5] = target: T3, human VISTA expressed on cells; assay: cell-based or functional assay; remark: listed apart in the source

B1: VSTB74 (antibody, V domains shown)
VH: QMQLVQSGPEVKKPGTSVKVSCKASGYIFTDYNIDWVRQARGQRLEWIGDINPKYDSTRYNQKFKGRVTITRDMSTSTAYMELSSLRSEDTAVYYCAADGSSAMDYWGQGTTVTVSS
VL: DIVMTQSPDSLAVSLGERATINCKSSQSLLNSGHQKNYLAWYQQKPGQPPKLLIYGASTRESGVPDRFSGSGSGTDFTLTISSLQAEDVAVYYCQNDHRYPLTFGQGTKLEIKR
Kd [1]: 0.562 nM | koff [1]: 0.000223 s⁻¹ | kon [1]: 397000 M⁻¹ s⁻¹ | Kd [2]: 0.347 nM | koff [2]: 0.000144 s⁻¹ | kon [2]: 415000 M⁻¹ s⁻¹

B5: VSTB53 (antibody, human IgG1, kappa, V domains shown)
VH: QVQLVQSGAEVKKPGASVKVSCKASGYTFTHYTIHWVRQAPGQGLEWMGYIIPSSGYSEYNQKFKDRVTMTRDTSTSTVYMELSSLRSEDTAVYYCARGAYDDYYDYYAMDYWGQGTLVTVSS
VL: DIVMTQSPLSLPVTPGEPASISCRSSQTIVHSNGNTYLEWYLQKPGQSPQLLIYKVSNRFSGVPDRFSGSGSGTDFTLKISRVEAEDVGVYYCFQASHVPWTFGQGTKLEIKR
EC50 IFNγ production, MLR [3]: 1.88 µg/mL | IC50, IFN-γ in the MLR [4]: 0.27 log10 of antibody concentration | IC50, IFN-γ in the SEB assay [5]: -1.05 log10 of antibody concentration

B6: VSTB50 (antibody, human IgG1, kappa, V domains shown)
VH: QVQLVQSGSELKKPGASVKVSCKASGYTFTNYGLNWVRQAPGQGLEWMGWINPYTGEPTYADDFKGRFVFSLDTSVSTAYLQICSLKAEDTAVYYCAREGYGNYIFPYWGQGTLVTVSS
VL: DIVMTQTPLSLSVTPGQPASISCRASESVDTYANSLMHWYLQKPGQPPQLLIYRASNLESGVPDRFSGSGSGTDFTLKISRVEAEDVGVYYCQQTNEDPRTFGQGTKLEIKR
EC50 IFNγ production, MLR [3]: 1.14 µg/mL | IC50, IFN-γ in the MLR [4]: 0.06 log10 of antibody concentration | IC50, IFN-γ in the SEB assay [5]: 1.69 log10 of antibody concentration

B7: VSTB60 (antibody, human IgG1, kappa, V domains shown)
VH: B6 VH with L34M, N35T, P53T, P58S, E99D, G100Y, N103I, I105V, F106S, P107A
VL: B6 VL with T31N, L36F, P47S, T95S, N96H, R100Y
EC50 IFNγ production, MLR [3]: 2.48 µg/mL | IC50, IFN-γ in the MLR [4]: 0.4 log10 of antibody concentration

Next, values leading:

Kd [1]: 0.636 nM | koff [1]: 0.000336 s⁻¹ | kon [1]: 528000 M⁻¹ s⁻¹ | Kd [2]: 0.302 nM | koff [2]: 0.00018 s⁻¹ | kon [2]: 598000 M⁻¹ s⁻¹
B2: VSTB103 (antibody, V domains shown)
VH: EVQLVQSGAEVKKPGESLKISCKGSGYSFTSYWIGWVRQMPGKGLEWMGIIYPGDSDTRYSPSFQGQVTISADKSISTAYLQWSSLKASDTAMYYCARDDALYGGYYLDYWGQGTLVTVSS
VL: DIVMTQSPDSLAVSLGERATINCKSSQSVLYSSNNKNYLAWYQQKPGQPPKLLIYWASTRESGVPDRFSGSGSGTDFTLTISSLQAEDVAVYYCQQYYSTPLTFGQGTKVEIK

EC50 IFNγ production, MLR [3]: 0.69 µg/mL | IC50, IFN-γ in the MLR [4]: -0.16 log10 of antibody concentration | IC50, IFN-γ in the SEB assay [5]: -0.35 log10 of antibody concentration
B3: VSTB116 (antibody, human IgG1, kappa, V domains shown)
VH: QVQLVQSGAEVKKPGSSVKVSCKASGGTFSSYAISWVRQAPGQGLEWMGGIIPIFGTANYAQKFQGRVTITADESTSTAYMELSSLRSEDTAVYYCARSSYGWSYEFDYWGQGTLVTVSS
VL: DIQMTQSPSSLSASVGDRVTITCRASQSINTNLNWYQQKPGKAPKLLIYAASSLQSGVPSRFSGSGSGTDFTLTISSLQPEDFATYYCQQARDTPITFGQGTKVEIKR

EC50 IFNγ production, MLR [3]: 1.67 µg/mL | IC50, IFN-γ in the MLR [4]: 0.22 log10 of antibody concentration | IC50, IFN-γ in the SEB assay [5]: 0.05 log10 of antibody concentration
B4: VSTB95 (antibody, human IgG1, kappa, V domains shown)
VH: EVQLVESGGGLVQPGGSLRLSCAASGFTFRNYGMSWVRQAPGKGLEWVASIISGGSYTYYPDSVKGRFTISRDNAKNSLYLQMNSLRAEDTAVYYCARIYDHDGDYYAMDYWGQGTTVTVSS
VL: B5 VL with T28S, A96G
